* marks the point of attachment. Biotin = O=C1N[C@H]2[C@H](CS[C@H]2CCCCC(=O)*)N1
Legend:
[1] = target: T1, recombinant mature dimeric myostatin (human and mouse (mature sequences 100% …, UniProt O08689 268-376)); assay: BIAcore T100 SPR, antibody captured on anti-mouse IgG, myostatin analyte, all curves Bivalent model
T1 construct: also called GDF-8; mature myostatin
T1 sequence: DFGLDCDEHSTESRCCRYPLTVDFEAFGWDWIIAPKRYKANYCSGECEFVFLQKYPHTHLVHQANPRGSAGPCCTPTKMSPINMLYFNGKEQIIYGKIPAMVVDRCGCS
Experimental: The affinity of 10B3 mouse parental and 10B3C for recombinant myostatin was assessed by BIAcore™ (surface plasmon resonance) analysis. Analysis was carried out by the use of a capture surface: anti-mouse IgG was coupled to a C1 chip by primary amine coupling for 10B3 mouse parental; and a protein A surface was created on a C1 chip by primary amine coupling for 10B3 chimera.
After capture, recombinant myostatin was passed over the surface at 64 nM, 16 nM, 4 nM, 1 nM, 0.25 nM and 0.0625 nM, with a buffer injection (i.e. 0 nM) used for double referencing. There was a regeneration step between each analyte injection, after which the new antibody capture event occurred before the next injection of myostatin. The data was analysed using both the 1:1 model and the Bivalent model inherent to the T100 machines analysis software (see Table 6). Both capture surfaces could be regenerated using 100 mM phosphoric acid, the work was carried out using HBS-EP as the running buffer and using 25° C. as the analysis temperature.

[2] = target: T2, myostatin artificial peptide No 19 (SGSGRYKANYCSGECEFV) (cysteine pairing not given here); assay: SRU BIND biosensor, peptides captured on streptavidin plate
T2 construct: also called Peptide 19
T2 peptide: Biotin-SGSGRYKANYCSGECEFV-NH2
Experimental: (§1) Work was carried out on an SRU BIND reader (SRU Biosystems). A streptavidin biosensor plate was washed, a baseline reading taken, and biotinylated peptides captured onto the streptavidin coated biosensor plate. The plate was washed again, and a new baseline reading taken, antibody was then added and binding monitored.

[3] = target: T3, myostatin artificial peptide No 17 (SGSGIAPKRYKANYCSGE) (HELM PEPTIDE1{[O=C1N[C@H]2[C@H](CS[C@H]2CCCCC(=O)[*:2])N1].S.G.S.G.I.A.P.K.R.Y.K.A.N.Y.C.S.G.E.[am]}$$$$V2.0; SMILES …); assay: as above
T3 construct: also called Peptide 17
T3 peptide: SGSGIAPKRYKANYCSGE
Experimental: as §1

[4] = target: T4, myostatin artificial peptide No 35 (SGSGSAGPCCTPTKMSPI) (cysteine pairing not given here); assay: as above
T4 construct: also called Peptide 35
T4 peptide: Biotin-SGSGSAGPCCTPTKMSPI-NH2
Experimental: as §1

[5] = target: T5, myostatin artificial peptide No 11 (SGSGTVDFEAFGWDWIIA) (HELM PEPTIDE1{[O=C1N[C@H]2[C@H](CS[C@H]2CCCCC(=O)[*:2])N1].S.G.S.G.T.V.D.F.E.A.F.G.W.D.W.I.I.A.[am]}$$$$V2.0; SMILES …); assay: as above
T5 construct: also called Peptide 11
T5 peptide: SGSGTVDFEAFGWDWIIA
Experimental: as §1

[6] = target: T6, myostatin artificial peptide No 13 (SGSGEAFGWDWIIAPKRY) (HELM PEPTIDE1{[O=C1N[C@H]2[C@H](CS[C@H]2CCCCC(=O)[*:2])N1].S.G.S.G.E.A.F.G.W.D.W.I.I.A.P.K.R.Y.[am]}$$$$V2.0; SMILES …); assay: as above
T6 construct: also called Peptide 13
T6 peptide: SGSGEAFGWDWIIAPKRY
Experimental: as §1

[7] = target: T7, myostatin artificial peptide No 21 (SGSGNYCSGECEFVFLQK) (cysteine pairing not given here); assay: as above
T7 construct: also called Peptide 21
T7 peptide: Biotin-SGSGNYCSGECEFVFLQK-NH2
Experimental: as §1

[8] = target: T8, myostatin artificial peptide No 27 (SGSGQKYPHTHLVHQANP) (HELM PEPTIDE1{[O=C1N[C@H]2[C@H](CS[C@H]2CCCCC(=O)[*:2])N1].S.G.S.G.Q.K.Y.P.H.T.H.L.V.H.Q.A.N.P.[am]}$$$$V2.0; SMILES …); assay: as above
T8 construct: also called Peptide 27
T8 peptide: SGSGQKYPHTHLVHQANP
Experimental: as §1

[9] = target: T9, myostatin artificial peptide No 49 (SGSGGKIPAMVVDRCGCS) (cysteine pairing not given here); assay: as above
T9 construct: also called Peptide 49
T9 peptide: Biotin-SGSGGKIPAMVVDRCGCS-OH
Experimental: as §1

[10] = target: T10, myostatin artificial peptide No 23 (SGSGGECEFVFLQKYPHT) (HELM PEPTIDE1{[O=C1N[C@H]2[C@H](CS[C@H]2CCCCC(=O)[*:2])N1].S.G.S.G.G.E.C.E.F.V.F.L.Q.K.Y.P.H.T.[am]}$$$$V2.0; SMILES …); assay: as above
T10 construct: also called Peptide 23
T10 peptide: SGSGGECEFVFLQKYPHT
Experimental: as §1

[11] = target: T11, myostatin artificial peptide No 15 (SGSGWDWIIAPKRYKANY) (HELM PEPTIDE1{[O=C1N[C@H]2[C@H](CS[C@H]2CCCCC(=O)[*:2])N1].S.G.S.G.W.D.W.I.I.A.P.K.R.Y.K.A.N.Y.[am]}$$$$V2.0; SMILES …); assay: as above
T11 construct: also called Peptide 15
T11 peptide: SGSGWDWIIAPKRYKANY
Experimental: as §1

[12] = target: T12, myostatin artificial peptide No 1 (…) (N-terminus H-; C-terminus -NH2); assay: as above
T12 construct: also called Peptide 1
Experimental: as §1

[13] = target: T13, myostatin artificial peptide No 37 (SGSGCCTPTKMSPINMLY) (cysteine pairing not given here); assay: as above
T13 construct: also called Peptide 37
T13 peptide: Biotin-SGSGCCTPTKMSPINMLY-NH2
Experimental: as §1

[14] = target: T14, myostatin artificial peptide No 3 (SGSGDCDEHSTESRCCRY) (cysteine pairing not given here); assay: as above
T14 construct: also called Peptide 3
T14 peptide: Biotin-SGSGDCDEHSTESRCCRY-NH2
Experimental: as §1

[15] = target: T15, myostatin artificial peptide No 41 (SGSGPINMLYFNGKEQII) (HELM PEPTIDE1{[O=C1N[C@H]2[C@H](CS[C@H]2CCCCC(=O)[*:2])N1].S.G.S.G.P.I.N.M.L.Y.F.N.G.K.E.Q.I.I.[am]}$$$$V2.0; SMILES …); assay: as above
T15 construct: also called Peptide 41
T15 peptide: SGSGPINMLYFNGKEQII
Experimental: as §1

Kd [1]: 5.9 nM | binding result [2]: no binding | binding result [3]: no binding | binding result [4]: no binding | binding result [5]: no binding | binding result [6]: no binding | binding result [7]: no binding | binding result [8]: no binding | binding result [9]: no binding | binding result [10]: no binding | binding result [11]: no binding | binding result [12]: no binding | binding result [13]: no binding | binding result [14]: no binding | binding result [15]: no binding
B1: mouse monoclonal antibody 10B3 (antibody, mouse IgG2a, V domains shown)
VH: EVQLQQSGPELVKPGASVKISCKASGYSFTGYFMHWVKQSHGNILDWIGNIYPYNGVSNYNQRFKAKATLTVDKSSSTAYMELRSLTSEDSAVYYCARRYYYGTGPADWYFDVWGTGTTVTVSS
VL: DIKMTQSPSSMYASLRERVTITCKASQDINSYLSWFQQKPGKSPKTLIYRANRLVDGVPSRFSGSGSGQDYSLTISSLEYEDMGIYYCLQCDEFPLTFGAGTKLELK
notes: Murine IgG2a/k; also called 10B3 mouse parental; parental 10B3

Reference: US20130142788A1 (published 2013)
